According to patent US20140162285A1, “Methods of Modulating Vesicular Trafficking” (The General Hospital Corporation, priority 2009, published 2014):

Biological target: T1, ARNO PB-domain (Homo sapiens, UniProt Q99418)
T1 construct: v) 379-400aa, polybasic (PB) domain; made in house; host or cells: E. coli BL21(DE3)
Assay: GST pull-down of in vitro translated a2N with ARNO PB-domain
Type: binding
Conditions: GST pull-down with GST- and His-tagged PB-domain construct
Description: The purified recombinant GST-ARNO(wt) and GST-tagged ARNO domain constructs ([…]) were incubated with 10 μl of in vitro translated 6His-a2N recombinant protein at 4° C. for 2 hours in 500 μl of binding buffer (10 mM HEPES, 1 mM EDTA, 1 mM DTT, 100 mM NaCl, 10% glycerol, 0.1% NP-40) with gentle rotation. Then the interacting recombinant proteins were immobilized on glutathione beads by incubation with 50 μl of 50% glutathione Sepharose 4B slurry for 2 hours at 4° C. The beads were collected by centrifugation and washed 5 times with 500 μl ice-cold binding buffer. Interacting proteins were eluted by boiling in SDS-PAGE sample buffer for 10 min at 95° C., resolved by SDS-PAGE and analyzed by Western blotting using polyclonal anti-a2N antibodies. […]
To examine the ability of these well-defined and functionally distinct domains of ARNO to interact with a2N1-402, full-length ARNO(wt) and its four domains were cloned separately for bacterial expression of recombinant proteins (FIG. 3). […] Interacting proteins were detected by western blot analysis with a2-specific antibodies as described above.

T1 sequence (Q99418 379-400 limits assumed): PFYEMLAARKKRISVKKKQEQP

B1: a2N: recombinant N-terminal cytosolic tail, amino acid residues 1-402 of mouse V-ATPase a2-subunit (protein)
chain: MGSLFRSESMCLAQLFLQSGTAYECLSALGEKGLVQFRDLNQNVSSFQRKFVGEVKRCEELERILVYLVQEITRADIPLPEGEASPPAPPLKHVLEMQEQLQKLEVELREVTKNKEKLRKNLLELVEYTHMLRVTKTFLKRNVEFEPTYEEFPALENDSLLDYSCMQRLGAKLGFVSGLIQQGRVEAFERMLWRACKGYTIVTYAELDECLEDPETGEVIKWYVFLISFWGEQIGHKVKKICDCYHCHIYPYPNTAEERREIQEGLNTRIQDLYTVLHKTEDYLRQVLCKAAESVCSRVVQVRKMKAIYHMLNMCSFDVTNKCLIAEVWCPEVDLPGLRRALEEGSRESGATIPSFMNTIPTKETPPTLIRTNKFTEGFQNIVDAYGVGSYREVNPALFTII
modifications: left off: small tags and cut ends
notes: recombinant N-terminal cytosolic tail, amino acid residues 1-402 of mouse V-ATPase a2-subunit
interaction of a2N with ARNO PB-domain: no interaction
